Test results as given in PMC5958137, “Calreticulin and integrin alpha dissociation induces anti-inflammatory programming in animal models of inflammatory bowel disease” (Nature Communications, 2018).
Structures can show the parent of a compound that is named as a salt. Each block holds one molecule with its values, some of them ahead of it. Ends that are not written are not given here. * marks the point of attachment. Biotin = O=C1N[C@H]2[C@H](CS[C@H]2CCCCC(=O)*)N1

Experiments:
Calreticulin (CRT) [1] = target: T1, Calreticulin (CRT) (Homo sapiens, UniProt P27797); assay: 1D 1H NMR ligand line broadening with CRT; […]-HSQC of ITGA4 peptide shows displacement from CRT; assay type: binding; design: gene CALR; Human CRT, His-tag fusion protein (pET-19b), expressed in E. coli
T1 sequence (P27797 18-417): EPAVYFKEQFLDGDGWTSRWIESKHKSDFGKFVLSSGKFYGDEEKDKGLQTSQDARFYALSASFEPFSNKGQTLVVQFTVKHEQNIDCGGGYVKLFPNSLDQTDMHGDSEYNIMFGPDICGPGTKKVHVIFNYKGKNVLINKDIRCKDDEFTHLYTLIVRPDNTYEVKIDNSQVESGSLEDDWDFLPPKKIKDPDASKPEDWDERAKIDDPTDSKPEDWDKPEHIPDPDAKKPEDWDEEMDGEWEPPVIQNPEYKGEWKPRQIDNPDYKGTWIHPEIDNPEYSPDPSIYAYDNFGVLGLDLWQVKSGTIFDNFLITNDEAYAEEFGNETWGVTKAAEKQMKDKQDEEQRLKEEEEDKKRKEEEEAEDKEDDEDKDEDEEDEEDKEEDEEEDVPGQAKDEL

Calreticulin (CRT) [2] = target: T1, Calreticulin (CRT); assay: cell-free plate assay of biotinylated ITGA peptide (KAGFFKR) binding to purified CRT; supported by GST-CRT pull-down; design: gene CALR
[3] = target: T2, CRT (>90% pure) used for surface plasmon resonance (human, UniProt P27797 18-417); assay: SPR
T2 chain: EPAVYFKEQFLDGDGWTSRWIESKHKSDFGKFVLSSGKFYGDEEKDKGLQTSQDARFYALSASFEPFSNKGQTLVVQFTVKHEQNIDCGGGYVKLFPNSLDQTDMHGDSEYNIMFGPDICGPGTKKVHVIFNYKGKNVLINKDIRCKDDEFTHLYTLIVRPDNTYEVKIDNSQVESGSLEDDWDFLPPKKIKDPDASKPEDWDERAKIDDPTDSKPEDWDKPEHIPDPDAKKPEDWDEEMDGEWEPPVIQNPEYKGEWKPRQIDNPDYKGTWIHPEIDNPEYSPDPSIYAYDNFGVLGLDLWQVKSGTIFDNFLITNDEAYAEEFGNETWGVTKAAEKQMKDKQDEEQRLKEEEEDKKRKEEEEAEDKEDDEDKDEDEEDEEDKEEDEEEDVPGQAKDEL

[4] = target: T2, CRT (>90% pure) used for surface …; assay: SPR
[5] = target: T3, Human CRT protein, His-tag fusion protein (pET-19b) (human, UniProt P27797 18-417); assay: NMR titration; two-dimensional 15N-HSQC, 4 μM 15N-ITGA4 with 4 μM CRT, 20 mM PB pH 5.5, 10% D2O, 303 K, 700 MHz; conditions: both partners purified
T3 construct: calreticulin (CRT), human; Surmise: pET-19b adds an N-terminal His tag; also called calreticulin; source: E. coli BL21, purified (Ni-NTA agarose, Superdex 75), >90% pure
T3 sequence (looked up): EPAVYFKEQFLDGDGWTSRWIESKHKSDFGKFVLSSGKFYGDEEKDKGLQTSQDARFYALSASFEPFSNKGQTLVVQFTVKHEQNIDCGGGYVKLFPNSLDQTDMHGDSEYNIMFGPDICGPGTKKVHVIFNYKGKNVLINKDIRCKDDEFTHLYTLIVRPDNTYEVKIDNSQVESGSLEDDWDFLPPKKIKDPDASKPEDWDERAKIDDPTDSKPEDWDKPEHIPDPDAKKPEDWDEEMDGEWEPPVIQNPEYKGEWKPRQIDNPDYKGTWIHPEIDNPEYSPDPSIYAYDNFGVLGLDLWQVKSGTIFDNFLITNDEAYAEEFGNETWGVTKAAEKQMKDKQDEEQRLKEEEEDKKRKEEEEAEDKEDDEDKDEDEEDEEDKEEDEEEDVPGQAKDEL

Molecule: CC1(C)CC(c2ccccc2N2CCN(CC3CC3)CC2)CC(C)(C)C1 [ER-339093-13, 1-(cyclopropylmethyl)-4-[2-(3,3,5,5-tetramethylcyclohexyl)phenyl] piperazine methanesulfonate]
1D 1H NMR ligand line broadening with CRT; 15N-HSQC of ITGA4 peptide shows displ (Calreticulin (CRT) [1]): notable line broadening of the ER-339093-13 signal was observed upon the addition of CRT

Molecule: CCCN1CCN(c2ccccc2C2CC(C)(C)CC(C)(C)C2)CC1 [ER-464195-01, 1-propyl-4-[2-(3,3,5,5-tetramethylcyclohexyl)phenyl] piperazine hydrochloride]
IC50 (Calreticulin (CRT) [2]): 170 nM

The remaining lines, values ahead:

Kd [3]: 250 nM
koff [4]: 0.00388 s⁻¹
Molecule: Biotin-KAGFFKRQYKSILQEENRRDSWSYINSKSNDD [N-terminally biotinylated intracellular domain of the ITGA4 peptide]

binding result [5]: binds
B1: uniformly 15N-labeled intracellular domain of ITGA4 (domain or fragment)
chain: KAGFFKRQYKSILQEENRRDSWSYINSKSNDD
modifications: also: uniformly 15N-labeled
notes: intracellular domain of integrin α4 (ITGA4), cloned BamHI-EcoRI into pGEX-2T; Surmise: thrombin cleavage of a pGEX-2T fusion leaves a few residues of the vector at the N-terminus; also called 15N-ITGA4; ITGA4 peptide
